Test results published in the RNAGym collection of RNA variant scans (doi:10.7554/elife.80360).

B1: CPEB3 Ribozyme (parent)
chain: GGGGGCCACAGCAGAAGCGUUCACGUCGCGGCCCCUGUCAGAUUCUGGUGAAUCUGCGAAUUCUGCUGU

Variants of: B1
Experiment: self-cleavage, relative activity (ratio to wild type); higher = more cleavage; co-transcriptional

First: C24G C35A
Second: G25A A40G
The self-cleavage of the first is lower: 0.167 for the first, 0.172 for the second.

First: C24U G68A
Second: C24U U26C
The self-cleavage of the first is higher: 0.919 for the first, 0.626 for the second.

Compared with C24U U26G, C24U U26A is lower in self-cleavage: 0.448 for the first, 0.257 for the second.

Going from G25U G47U to G25U G47A, the self-cleavage rises from 0.148 to 0.188.

Compared with C24A U49C, C24A U49G is lower in self-cleavage: 0.74 for the first, 0.686 for the second.

Going from G25U G28U to G25A U55A, the self-cleavage rises from 0.145 to 0.222.

Compared with G25U A42G, G25U C45G is higher in self-cleavage: 0.129 for the first, 0.133 for the second.

Compared with G25A G48C, U26A A60C is higher in self-cleavage: 0.218 for the first, 0.285 for the second.

Compared with C24A G31A, G25A C66G is lower in self-cleavage: 0.372 for the first, 0.223 for the second.

Compared with A23U U38G, A23U U38C is higher in self-cleavage: 0.206 for the first, 0.96 for the second.

Compared with A23U U38A, C24A G50U is lower in self-cleavage: 0.95 for the first, 0.722 for the second.

First: C24U G31C
Second: U26A C45A
The self-cleavage of the first is lower: 0.0935 for the first, 0.828 for the second.

First: U26A C45G
Second: U26A C45U
The self-cleavage of the first is higher: 0.895 for the first, 0.879 for the second.

Going from C24A U36C to C24G G28C, the self-cleavage falls from 0.27 to 0.224.

First: C24G G28U
Second: C24A U64G
The self-cleavage of the first is lower: 0.13 for the first, 0.508 for the second.

Compared with C24A U64C, U26A C29U is lower in self-cleavage: 0.471 for the first, 0.36 for the second.

First: U26A C29A
Second: G25U G41C
The self-cleavage of the first is higher: 0.46 for the first, 0.103 for the second.

Compared with G25U G41U, G25C C63G is higher in self-cleavage: 0.173 for the first, 0.176 for the second.

Going from G25C C63A to U26A G28U, the self-cleavage falls from 0.235 to 0.211.

Going from U26A U46C to A23U G31A, the self-cleavage rises from 0.809 to 0.977.

First: U26A C63U
Second: U26A C63G
The self-cleavage of the first is higher: 0.779 for the first, 0.507 for the second.

Going from C24A U67C to G25C C35G, the self-cleavage falls from 0.713 to 0.124.

Compared with G25A C63G, G25A C63A is lower in self-cleavage: 0.185 for the first, 0.104 for the second.

Going from C24G C66U to G25C G31A, the self-cleavage falls from 0.502 to 0.217.

First: G25U U49A
Second: C24A U62G
The self-cleavage of the first is lower: 0.12 for the first, 0.425 for the second.

Going from G25C U61C to G25C U61A, the self-cleavage rises from 0.0705 to 0.193.

Going from G25U U64G to G25C U49C, the self-cleavage falls from 0.189 to 0.185.

Going from U26A A51G to U26A A51C, the self-cleavage falls from 0.889 to 0.871.

First: C24U G30C
Second: C24A C57A
The self-cleavage of the first is lower: 0.152 for the first, 0.188 for the second.

Going from G25C G48C to G25U U26G, the self-cleavage falls from 0.147 to 0.0885.

Compared with C24U G41C, C24G A52C is higher in self-cleavage: 0.303 for the first, 0.391 for the second.

Compared with C24G A52U, C24A A52C is higher in self-cleavage: 0.409 for the first, 0.634 for the second.

First: C24A A52U
Second: C24G G65C
The self-cleavage of the first is higher: 0.632 for the first, 0.242 for the second.

Compared with C24G G65U, C24A A51U is higher in self-cleavage: 0.243 for the first, 0.782 for the second.

Compared with G25U A60U, G25U A60C is higher in self-cleavage: 0.13 for the first, 0.132 for the second.

First: G25U A60G
Second: C24G A42C
The self-cleavage of the first is lower: 0.229 for the first, 0.385 for the second.

Going from C24G G48A to C24G G48C, the self-cleavage falls from 0.554 to 0.449.

Compared with C24U C54G, C24A A42C is higher in self-cleavage: 0.586 for the first, 0.629 for the second.

First: C24A A42U
Second: U26A U44C
The self-cleavage of the first is lower: 0.66 for the first, 0.768 for the second.

Going from C24A C35A to C24A C35U, the self-cleavage rises from 0.185 to 0.476.

Compared with C24G C29G, C24G C29U is lower in self-cleavage: 0.194 for the first, 0.0935 for the second.

G25U U36G and G25A U49A are the same in self-cleavage: 0.155 for the first, 0.155 for the second.

Compared with G25U U55C, C24U G37A is lower in self-cleavage: 0.229 for the first, 0.167 for the second.

Compared with C24U G37C, G25U C29U is lower in self-cleavage: 0.223 for the first, 0.206 for the second.

Going from A23U U61C to C24G U43G, the self-cleavage falls from 0.895 to 0.249.

Compared with G25A A51C, C24G U26A is lower in self-cleavage: 0.209 for the first, 0.206 for the second.

First: C24G U26G
Second: C24U C39U
The self-cleavage of the first is lower: 0.344 for the first, 0.549 for the second.

Going from C24U C39A to C24U C39G, the self-cleavage rises from 0.315 to 0.619.

First: G25A C45G
Second: G25A C45U
The self-cleavage of the first is higher: 0.142 for the first, 0.132 for the second.

Going from C24G U44G to C24U C27A, the self-cleavage falls from 0.308 to 0.229.

First: C24G G56C
Second: G25C U43A
The self-cleavage of the first is higher: 0.245 for the first, 0.139 for the second.

Compared with C24A G58C, A23U U69G is higher in self-cleavage: 0.509 for the first, 1.04 for the second.

Going from C24U C32U to C24G U67G, the self-cleavage falls from 0.805 to 0.508.

First: C24G U67C
Second: C24G U62C
The self-cleavage of the first is higher: 0.522 for the first, 0.148 for the second.

First: G25U G65A
Second: G25U G65U
The self-cleavage of the first is lower: 0.184 for the first, 0.187 for the second.

Going from G25U U61A to G25U U61C, the self-cleavage rises from 0.175 to 0.179.

First: C24G G68C
Second: G25C C57G
The self-cleavage of the first is higher: 0.578 for the first, 0.141 for the second.

Compared with G25C C57U, G25U C66A is lower in self-cleavage: 0.143 for the first, 0.133 for the second.

Compared with G25U C66G, U26A G56A is higher in self-cleavage: 0.187 for the first, 0.748 for the second.

Compared with G25A G41A, C24A G68C is higher in self-cleavage: 0.174 for the first, 0.825 for the second.

Going from C24U U38G to G25A A60C, the self-cleavage falls from 0.166 to 0.142.

First: C24G U49A
Second: C24G U49G
The self-cleavage of the first is higher: 0.59 for the first, 0.565 for the second.

First: G25A G65U
Second: G25A G65C
The self-cleavage of the first is lower: 0.134 for the first, 0.178 for the second.

Going from C24A A59C to G25C G28C, the self-cleavage falls from 0.32 to 0.153.

First: A23U G47C
Second: C24U C57A
The self-cleavage of the first is higher: 0.999 for the first, 0.309 for the second.

Compared with C24U U64G, G25A G56C is lower in self-cleavage: 0.466 for the first, 0.213 for the second.

First: G25A G56A
Second: G25A U69G
The self-cleavage of the first is lower: 0.154 for the first, 0.327 for the second.

Going from G25C C45A to C24G C32A, the self-cleavage rises from 0.204 to 0.224.

Going from G25U U43A to G25U U43G, the self-cleavage rises from 0.0919 to 0.148.

Going from G25U U43C to G25A U46G, the self-cleavage rises from 0.122 to 0.174.

Compared with G25U G56C, G25U G56U is lower in self-cleavage: 0.158 for the first, 0.134 for the second.

Going from G25U G56A to G25C C33G, the self-cleavage rises from 0.171 to 0.235.

Going from U26A A40U to C24G A51U, the self-cleavage falls from 0.531 to 0.353.

Going from U26A U49A to U26A U49C, the self-cleavage falls from 0.866 to 0.79.

Compared with U26A U49G, C24G U69A is lower in self-cleavage: 0.866 for the first, 0.509 for the second.

First: C24G U69G
Second: C24U G25U
The self-cleavage of the first is higher: 0.63 for the first, 0.146 for the second.

Going from C24A U55A to C24A U55C, the self-cleavage falls from 0.617 to 0.434.

First: A23U U43G
Second: G25C U67C
The self-cleavage of the first is higher: 0.884 for the first, 0.115 for the second.

First: C24A G47C
Second: C24A G47U
The self-cleavage of the first is higher: 0.765 for the first, 0.754 for the second.

Going from G25A C34G to C24G A60G, the self-cleavage rises from 0.19 to 0.264.

First: G25A U67A
Second: G25C A51U
The self-cleavage of the first is higher: 0.21 for the first, 0.152 for the second.

Compared with C24A U61G, C24A U61A is higher in self-cleavage: 0.347 for the first, 0.452 for the second.

Going from C24U A59U to C24U G65C, the self-cleavage falls from 0.414 to 0.353.

Work on C24A U43C yielded a self-cleavage of 0.631.
